Reference: publication PMC11254934
No end group written: not given here. *: point of attachment. G0F = octasaccharide N-glycan with core α-1,6-fucose, CC(=O)N[C@@H]1[C@@H](O)[C@H](O[C@@H]2O[C@H](CO)[C@@H](O[C@@H]3O[C@H](CO[C@H]4O[C@H](CO)[C@@H](O)[C@H](O)[C@@H]4O[C@@H]4O[C@H](CO)[C@@H](O)[C@H](O)[C@H]4NC(C)=O)[C@@H](O)[C@H](O[C@H]4O[C@H](CO)[C@@H](O)[C@H](O)[C@@H]4O[C@@H]4O[C@H](CO)[C@@H](O)[C@H](O)[C@H]4NC(C)=O)[C@@H]3O)[C@H](O)[C@H]2NC(C)=O)[C@@H](CO[C@@H]2O[C@@H](C)[C@@H](O)[C@@H](O)[C@@H]2O)O[C@H]1*

Target: anti-fuc-PSA mAb 2E9 (rabbit)
Assay: SPR; Biacore 8k, 37 °C, HBS-ET (10 mM HEPES pH 7.4, 150 mM NaCl, 3 mM EDTA, 0.005% Tween 20) with 1 mg/mL carboxymethyl dextran; rabbit IgG from culture supernatant captured by goat anti-rabbit Fcγ on CM5; peptides injected at 0, 11, 33, 100, 300, 900 nM; Langmuir fit

anti-fuc-PSA mAb 2E9 (rabbit), sequence (heavy, as listed by the source, chain 1 of 2): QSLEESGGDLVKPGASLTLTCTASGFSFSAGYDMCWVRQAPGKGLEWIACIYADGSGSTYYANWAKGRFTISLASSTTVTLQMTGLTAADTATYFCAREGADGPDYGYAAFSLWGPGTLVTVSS
anti-fuc-PSA mAb 2E9 (rabbit), sequence (light, as listed by the source, chain 2 of 2): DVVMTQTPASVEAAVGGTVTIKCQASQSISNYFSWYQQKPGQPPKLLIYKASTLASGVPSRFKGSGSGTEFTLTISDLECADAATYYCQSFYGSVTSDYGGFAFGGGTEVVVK

BL (binding late): 27 RU
Kd: 0.6 nM
stoichiometry N: 2
t1/2 (antibody–antigen complex half-life): 10 min
B1: PSA(67–79)-G0F (peptide)
peptide: IRN(G0F)KSVILLGRHS
